Here are results for four molecules from publication PMC7997955, “Bora phosphorylation substitutes in trans for T-loop phosphorylation in Aurora A to promote mitotic entry” (Nature Communications, 2021).

Holding throughout (conditions): both partners purified
The target in test [1] is T1, fluorescein-labeled Tpx2^1–43 polypeptide (UniProt Q9ULW0 1-43, fluorescein (FITC) label, position not stated).
T1 construct: Tpx2 (Targeting Protein for Xenopus kinesin-like protein 2), first 43 residues; also called FITC-Tpx2^1–43; source: synthetic peptide (Proteogenix)
T1 peptide (looked up): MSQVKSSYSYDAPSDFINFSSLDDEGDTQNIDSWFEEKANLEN
In words: fluorescence polarisation; direct binding: 5 nM FITC-Tpx2^1–43 with increasing AURKA; 25 mM HEPES pH 7.5, 50 mM NaCl, 10 mM MgCl2, 0.1 mg/mL BSA, 0.01% Brij, 3 mM ADP, 2 mM DTT. A general note: Fluorescence polarisation rises when a labelled molecule tumbles more slowly, as on binding a larger partner.

For test [2], the target named is T2, Full-length human AURKA^T288V (human, UniProt O14965 1-403, T288V).
T2 construct: non-native residues left at the N-terminus after TEV digestion of the 6xHis-GST fusion; Aurora A kinase (AURKA), human, full length, T288V; Lacks T-loop phosphorylation; MW 45935.52 in the SPR methods; also called AURKA T-loop mutant (T288V); source: E. coli BL21 DE3 pLyS RIL, purified (glutathione sepharose, TEV cleavage, HiTrap SP, Superdex 200); not shown: 6xHis, N-terminal, cleaved; GST, …
T2 sequence: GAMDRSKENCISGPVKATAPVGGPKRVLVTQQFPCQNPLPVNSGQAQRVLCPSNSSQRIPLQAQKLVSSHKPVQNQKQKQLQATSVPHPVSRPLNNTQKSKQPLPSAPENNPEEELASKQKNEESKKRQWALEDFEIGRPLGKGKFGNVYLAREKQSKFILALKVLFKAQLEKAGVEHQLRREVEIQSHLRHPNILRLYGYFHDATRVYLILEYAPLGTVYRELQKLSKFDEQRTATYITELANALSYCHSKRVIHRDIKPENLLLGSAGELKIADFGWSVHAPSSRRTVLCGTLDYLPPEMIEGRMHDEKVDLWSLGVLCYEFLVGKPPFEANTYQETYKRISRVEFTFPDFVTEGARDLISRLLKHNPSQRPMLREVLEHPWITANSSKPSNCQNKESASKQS
The experiment in a line: SPR; biotinylated AVI-Bora^1–224 or AVI-pBora^1–224 immobilised on a streptavidin chip (Biacore S200), AURKA flowed over; 25 °C; 25 mM HEPES pH 7.5, 150 mM NaCl, 20 mM MgCl2, 1 mM TCEP, 0.01% Brij 35; flow 10 µL/min; mean of n = 2; the paper says the affinities appear under-estimated.

The target of test [3] is T3, Full-length human AURKA^WT (Aurora A kinase) (human, UniProt O14965 1-403, phosphothreonine at T288 (T-loop; 'WT phosphorylated')).
T3 construct: non-native residues left at the N-terminus after TEV digestion of the 6xHis-GST fusion; Aurora A kinase (AURKA), human, full length; also called AURA^WT; WT phosphorylated; source: E. coli BL21 DE3 pLyS RIL, purified (glutathione sepharose, TEV cleavage, HiTrap SP, Superdex 200); not shown: 6xHis, N-terminal, cleaved; GST, N-terminal, cleaved
T3 sequence: T2 sequence with V290T
The description is as above.

Test [4] concerns the target T4, Full-length human AURKA^T288V (human, UniProt O14965 1-403, T288V, not phosphorylated: 0P by intact mass (Supplementary Fig. S3a)).
T4 construct: non-native residues left at the N-terminus after TEV digestion; Aurora A kinase (AURKA), human, full length, T-loop mutant T288V; source: E. coli BL21 DE3 pLysS RIL, purified (glutathione sepharose, TEV cleavage, HiTrap SP, Superdex 200); not shown: 6xHis, N-terminal, cleaved; GST, N-terminal, cleaved
T4 sequence: T2 sequence
In words: fluorescence polarisation; competitive displacement: FITC-Tpx2^1–43 (5 nM) and AURKA (35 nM) kept constant, unlabeled competitor varied; 25 mM HEPES pH 7.5, 50 mM NaCl, 10 mM MgCl2, 0.1 mg/mL BSA, 0.01% Brij, 3 mM ADP, 2 mM DTT.

Changes are numbered by the printed parent chain. Numbers in names are those of the source.

B1: AURKA^([T288V R255A]) (enzyme, human)
chain: T2 sequence with R257A
notes: non-native residues left at the N-terminus after TEV digestion of the 6xHis-GST fusion; Aurora A kinase (AURKA), human, full length, T288V R255A; source: E. coli BL21 DE3 pLyS RIL, purified (glutathione sepharose, TEV cleavage, HiTrap SP, Superdex 200); not shown: 6xHis, N-terminal, cleaved; GST, N-terminal, cleaved
As to B1, the “fold reduced binding against the other AURKA^T288V mutants” value in test [1] worked out at 3 fold.

B2: biotinylated AVI-tagged pBora^1–224 (phosphorylated by CyclinA2-Cdk2) (domain or fragment)
chain: not shown
modifications: biotin (on the AVI tag, by BirA); phosphorylated by CyclinA2-Cdk2 (average of eight phosphorylations)
notes: As m9, phosphorylated; MW 27440 calculated from an average of eight phosphorylations; not shown: AVI, N-terminal, kept; 6xHis, N-terminal, cleaved
As for B2, the Kd is 6 µM in test [2] and approximately 18 µM in test [3].

B3: biotinylated AVI-tagged Bora^1–224 (domain or fragment)
chain: not shown
modifications: biotin (on the AVI tag, by BirA)
notes: source: E. coli BL21 DE3 pLyS RIL, purified, biotinylated in vitro with 6xHis-BirA and re-purified (Superdex 200); not shown: AVI, N-terminal, kept; 6xHis, N-terminal, cleaved
B3: the figures for the Kd in test [2] and in test [3] were 11 µM and approximately 52 µM, respectively.

B4: pBora^(18–120 [S27A T52A]) (domain or fragment)
chain: not shown
modifications: phosphorylated; with ERK 2P and 3P by intact mass, 2 phosphorylations expected (S41, S112) (Supplementary Fig. S6e)
notes: non-native residues left at the N-terminus after TEV digestion; Bora, human, residues 18-120 with S27A and T52A; source: E. coli BL21 DE3 pLysS RIL, purified, then phosphorylated in vitro; not shown: 6xHis, N-terminal, cleaved
Regarding B4, the IC50 in test [4] was 0.68 µM.

The term Kd denotes the free concentration of one partner at which half of the binding sites on the other are occupied at equilibrium, for simple one-to-one binding. What is called IC50 is the midpoint of a concentration-inhibition curve. Low readings indicate higher potency, high ones lower potency.
